Experimental data reported in publication PMC4532127.

Biological target: TSH receptor (solubilized porcine thyroid membrane) (porcine (endogenous in thyroid membrane)) (UniProt Q8SPP9)
Experiment: radioligand binding

Chain of UniProt Q8SPP9 (Q8SPP9 22-764): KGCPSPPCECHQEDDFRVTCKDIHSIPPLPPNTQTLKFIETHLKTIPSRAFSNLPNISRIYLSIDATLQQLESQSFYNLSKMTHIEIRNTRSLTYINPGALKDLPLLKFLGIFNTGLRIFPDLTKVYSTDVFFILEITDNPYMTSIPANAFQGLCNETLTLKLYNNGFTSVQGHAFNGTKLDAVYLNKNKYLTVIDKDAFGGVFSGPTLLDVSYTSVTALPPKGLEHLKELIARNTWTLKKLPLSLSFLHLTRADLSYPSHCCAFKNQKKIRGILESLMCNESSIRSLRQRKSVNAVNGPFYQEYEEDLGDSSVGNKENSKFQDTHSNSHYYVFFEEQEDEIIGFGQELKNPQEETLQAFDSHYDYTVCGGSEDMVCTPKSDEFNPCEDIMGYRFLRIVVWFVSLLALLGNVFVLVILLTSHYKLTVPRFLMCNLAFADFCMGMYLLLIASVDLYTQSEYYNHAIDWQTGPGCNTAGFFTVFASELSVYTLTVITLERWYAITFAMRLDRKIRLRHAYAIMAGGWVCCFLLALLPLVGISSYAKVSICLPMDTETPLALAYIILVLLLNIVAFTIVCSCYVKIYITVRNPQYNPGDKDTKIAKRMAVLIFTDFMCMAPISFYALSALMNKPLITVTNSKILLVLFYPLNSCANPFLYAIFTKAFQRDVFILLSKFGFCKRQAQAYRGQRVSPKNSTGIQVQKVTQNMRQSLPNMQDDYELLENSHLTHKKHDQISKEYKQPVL

- cpm of bound 125I-bTSH (TSH receptor present, heat-treated normal pooled IgG): 6950 cpm
- cpm of bound 125I-bTSH (TSH receptor present, normal pooled IgG): 7810 cpm
- cpm of bound 125I-bTSH, T B (Bo): 7000 cpm
Substance: 125I-labelled bTSH (bovine thyroid-stimulating hormone) (from UniProt P01217 25-120; P01223 21-132) (ligand)
